B1: Retinoblastoma-associated protein (Homo sapiens), P06400 (parent)
chain: MPPKTPRKTAATAAAAAAEPPAPPPPPPPEEDPEQDSGPEDLPLVRLEFEETEEPDFTALCQKLKIPDHVRERAWLTWEKVSSVDGVLGGYIQKKKELWGICIFIAAVDLDEMSFTFTELQKNIEISVHKFFNLLKEIDTSTKVDNAMSRLLKKYDVLFALFSKLERTCELIYLTQPSSSISTEINSALVLKVSWITFLLAKGEVLQMEDDLVISFQLMLCVLDYFIKLSPPMLLKEPYKTAVIPINGSPRTPRRGQNRSARIAKQLENDTRIIEVLCKEHECNIDEVKNVYFKNFIPFMNSLGLVTSNGLPEVENLSKRYEEIYLKNKDLDARLFLDHDKTLQTDSIDSFETQRTPRKSNLDEEVNVIPPHTPVRTVMNTIQQLMMILNSASDQPSENLISYFNNCTVNPKESILKRVKDIGYIFKEKFAKAVGQGCVEIGSQRYKLGVRLYYRVMESMLKSEEERLSIQNFSKLLNDNIFHMSLLACALEVVMATYSRSTSQNLDSGTDLSFPWILNVLNLKAFDFYKVIESFIKAEGNLTREMIKHLERCEHRIMESLAWLSDSPLFDLIKQSKDREGPTDHLESACPLNLPLQNNHTAADMYLSPVRSPKKKGSTTRVNSTANAETQATSAFQTQKPLKSTSLSLFYKKVYRLAYLRLNTLCERLLSEHPELEHIIWTLFQHTLQNEYELMRDRHLDQIMMCSMYGICKVKNIDLKFKIIVTAYKDLPHAVQETFKRVLIKEEEYDSIIVFYNSVFMQRLKTNILQYASTRPPTLSPIPHIPRSPYKFPSSPLRIPGGNIYISPLKSPYKISEGLPTPTKMTPRSRILVSIGESFGTSEKFQKINQMVCNSDRVLKRSAEGSNPPKPLKKLRFDIEGSDEADGSKHLPGESKFQQKLAEMTSTRTRMQKQKMNDSMDTSNKEEK
partner: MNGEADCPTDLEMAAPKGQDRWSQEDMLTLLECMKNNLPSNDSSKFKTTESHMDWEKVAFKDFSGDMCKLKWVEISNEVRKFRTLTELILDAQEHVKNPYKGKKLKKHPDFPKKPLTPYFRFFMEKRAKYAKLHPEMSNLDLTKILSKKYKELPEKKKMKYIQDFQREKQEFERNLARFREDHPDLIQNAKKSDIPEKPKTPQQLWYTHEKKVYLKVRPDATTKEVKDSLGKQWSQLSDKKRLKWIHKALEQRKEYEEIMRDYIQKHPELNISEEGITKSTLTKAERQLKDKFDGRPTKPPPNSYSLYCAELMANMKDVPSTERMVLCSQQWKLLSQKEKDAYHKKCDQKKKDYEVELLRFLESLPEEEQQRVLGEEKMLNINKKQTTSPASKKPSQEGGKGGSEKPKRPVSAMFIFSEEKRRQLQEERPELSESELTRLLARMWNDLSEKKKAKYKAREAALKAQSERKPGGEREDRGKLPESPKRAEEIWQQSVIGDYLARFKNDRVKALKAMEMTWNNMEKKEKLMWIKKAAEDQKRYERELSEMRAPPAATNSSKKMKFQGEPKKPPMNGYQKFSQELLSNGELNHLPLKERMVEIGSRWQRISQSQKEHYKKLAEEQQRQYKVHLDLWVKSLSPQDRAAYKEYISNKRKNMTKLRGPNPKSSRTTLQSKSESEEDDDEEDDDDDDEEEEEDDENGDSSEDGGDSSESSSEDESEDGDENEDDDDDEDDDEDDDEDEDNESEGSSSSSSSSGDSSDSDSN

In this test the parent is B1. The conditions noted are these: with ubf1_rat Ubtf.
In the case of C706F, the “effect of a mutation on the interaction” value is recorded as “disrupting interaction”.

The record behind these values is IntAct's records for PubMed 7877691.
